# From US20220089702A1 (PROTHENA BIOSCIENCES, published 2022)
# Ends that are not written are not given here.
# T1: biotinylated tau peptide spanning amino acids 199-213 of SEQ ID NO:3 (human, also: biotinylated (position not given here))
# T1 peptide: KSKIGSTENLKHQPG
# Target: T1, biotinylated tau peptide spanning amino …
# Assay: ELISA, biotinylated peptide on streptavidin plate
# Text: Overlapping biotinylated peptides spanning the length of the 4R0N isoform of tau (383 amino acids) were bound to wells of a streptavidin-coated ELISA plate. The plate was washed and blocked, and murine forms of antibodies 5G8, 6A10, 8A4, 7G6 and 3D6 were applied. After washing, a horseradish peroxidase-conjugated anti-mouse antibody was applied to the plate, followed by treatment with OPD (o-phenylenediamine dihydrochloride) to allow color development. The plate was read at 450 nm absorbance, with background from wells omitting primary antibody used as a blank subtraction. […] These peptides correspond to amino acids 257-271 and 315-329 in the full-length 4R2N human tau protein.
row,binding result,Binder
1,binds,"mouse monoclonal antibody 6A10 (antibody, mouse IgG1, V domains shown, Mouse IgG1/kappa; also called m6A10; murine 6A10) VH: EVQLQQSGAELVRSGASVKLSCTASGLNIKDYYIHWVKQRPEQGLEWIGWIDPENDDTEYAPKFQGRATLTTDTSSNTAYLQLSSLTSEDTAVYYCTPLDYWGQGTSVTVSS VL: not shown"
2,binds,"mouse monoclonal antibody 5G8 (antibody, V domains shown, Hybridoma-produced mouse antibody; also called m5G8; murine 5G8) VH: EVQLQQSGAELVRSGASVRLSCTASGFNIKDYYMHWVRQRPEQGLEWIGWIDPENGDTVYAPKFQGKATMTSDTSSNTAYLHLSSLTSEDTAVYYCSPLDFWGQGTTLTVSS VL: not shown"
3,binds,"mouse monoclonal antibody 8A4 (antibody, mouse IgG1, V domains shown, Mouse IgG1/kappa; also called m8A4; murine 8A4) VH: EVQLQQSGAELVRPGALVKLSCKASGFNIKDYYIHWVKQRPEQGLEWIGWIDPENGDTVYDPQFQDKANITADTSSNTAYLQLSSLTSEGTAVYYCSTLDFWGQGTTLTVSS VL: not shown"
